Experiment [1] deals with PsaA receptor on Detroit 562 human nasopharyngeal epithelial cells (human). The experiment can be described thus: time course on Detroit 562 cells, n=6, 140 min.
The target is the same in experiment [2]. The experiment can be described thus: time course on Detroit 562 cells, n=6, 20 min.
The target is the same in experiment [3]. The experiment can be described thus: cold chase with non-fluorescent PsaA-coated spheres against PsaA-coated fluospheres on Detroit 562 cells.
The target is the same in experiment [4]. The experiment can be described thus: 2,600 fluospheres/well on Detroit 562 cells, day 1 after labeling.
Experiment [5] shares this target. The experiment can be described thus: time course on Detroit 562 cells, n=6, 180 min.
For experiment [6] the target is unchanged. The experiment can be described thus: coated fluospheres at 1:50 dilution on Detroit 562 cells.
The target is the same in experiment [7]. The experiment can be described thus: adherence of unsaturated rPsaA fluospheres to Detroit 562 cells with P3 peptide added.
Experiment [8] has the same target. The experiment can be described thus: 2,600 fluospheres/well on Detroit 562 cells, day 60 after labeling.
Experiment [9] has the same target. The experiment can be described thus: competitor P4 in solution against P4-coated beads on Detroit 562 cells.
For experiment [10] the target is unchanged. The experiment can be described thus: homologous competitor P4 in solution against P4-coated fluospheres on Detroit 562 cells.
For experiment [11] the target is unchanged. The experiment can be described thus: coated fluorospheres on Detroit 562 cells, 1640±210 beads/well.
For experiment [12] the target is unchanged. The experiment can be described thus: competition of PsaA-coated bead adherence to Detroit 562 cells by P4 in solution (second of the three doses, printed 100 µg).
Experiment [13] shares this target. The experiment can be described thus: competition of PsaA-coated bead adherence to Detroit 562 cells by P4 in solution.

These results are taken from patent US20080305123A1.

Values joined by “and” are separate entries in the source; they are usually repeats but may differ in a detail not shown here. Equal entries are not always repeated. Some results are limits rather than exact numbers.

Regarding “recombinant pneumococcal surface adhesin A (rPsaA) of Streptococcus pneumoniae (from UniProt P0A4G2 20-309) (ligand)”, the figures for the mean adherence signal (FU) in experiment [1], in experiment [2] and in [5] were 16600 FU, 2320 FU and 17500 FU, respectively. In experiment [3], this substance gave a % inhibition of adherence of PsaA-coated fluospheres of under 31%. Further, the mean adherence (FU) in experiment [4] came to 30100 FU; in [8], 30600 FU. In experiment [6], this substance registered an adherence signal (FU) of over 100000 FU. For the same substance, the fold enhancement of binding by P3 peptide in [7] was under 2.5 fold.
Regarding “P4 peptide (PsaA amino acid residues 251 to 278 with DD changed to KR)”, the percent reduction in adherence in experiment [9] is 89.4% and 87.6% and 88.9%; in experiment [10], 89.4% and 87.6% and 88.9%. Further, the adherence (mean FU) in [11] was determined as 19300 FU. Further, the % reduction in FU amounted to 68% in experiment [12] and 23% in experiment [13]. For the same substance, the adherence signal (FU) in experiment [6] is over 100000 FU.
